Key:
[1] = target: T1, AFP158/HLA-A*02:01 complex (human); test: SPR, fold vs AS170036 VL1VH1;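 also: crude scFv muteins immobilised on a sensor chip, peptide–MHC complex passed over at several concentrations, binding then buffer-driven dissociation, KD estimated from on- and off-rates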
T1 construct: flowed as analyte in SPR

[2] = target: T1, AFP158/HLA-A*02:01 complex; test: SPR, crude scFv captured, pMHC analyte;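 also: pMHC analyte injected at three concentrations, association phase of one hundred seconds, then running buffer for dissociation, rates fitted from both curves, KD derived from the rates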
Experimental: (§1) The experiment was carried out as follows. The crude scFv protein were captured onto the sensorchip. Different concentrations (320, 160, 40 nM) of AFP158/HLA-A*02:01 complex flowed over the sensorchip surface, and were allowed to bind the antibody fragment for 100 s followed by injection of the running buffer to allow dissociation of the complex. On-rate (kd) and off-rate (kd) were calculated based on association and dissociation curve, and were used to estimate the equilibrium dissociation constant (KD).
The crude scFv muteins were then subjected to SPR affinity measurement by the method mentioned above.

[3] = target: T2, AFP158/HLA-A*02:01 complex (human); test: SPR, scFv captured, pMHC in flow;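 also: complex injected at several concentrations over crude scFv, association then running-buffer dissociation, KD estimated from kinetic on- and off-rate constants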
T2 construct: flowed over the chip in SPR; also called AFP158 pro
Experimental: as §1

[4] = target: T2, AFP158/HLA-A*02:01 complex; test: SPR, KD ratio to AS170036 VL1VH1;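 also: crude scFv captured on a sensor chip, peptide–HLA complex passed over at several concentrations, association then buffer dissociation, KD derived from on- and off-rates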
Experimental: as §1

[5] = target: T2, AFP158/HLA-A*02:01 complex; test: SPR, KD ratio to AS170036 VL1VH1; remark: listed apart in the source;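 also: crude scFv captured on a sensor chip, peptide–HLA complex passed over at several concentrations, association then buffer dissociation, KD derived from on- and off-rates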
Experimental: as §1

[6] = target: T2, AFP158/HLA-A*02:01 complex; test: SPR, scFv captured, pMHC in flow; remark: listed apart in the source;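 also: complex injected at several concentrations over crude scFv, association then running-buffer dissociation, KD estimated from kinetic on- and off-rate constants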
Experimental: as §1

Binder	Affinity increase [1] [fold]	Kd [2] [nM]	koff [2] [s⁻¹]	kon [2] [M⁻¹ s⁻¹]	Kd [3] [nM]	Affinity increase [4] [fold]	Affinity increase [5] [fold]	Kd [6] [nM]
AS170036 VL1VH1-98F108S (scFv, also called 33-AS170036 VL1VH1-98F108S) scFv: QSALTQPRSVSGSPGQSVTISCAGTSSDVGSENYVSWYQQHPGKAPKLMIYQVNKRASGVPDRFSGSKSGNTASLTISGLQAEDEADYYCASYRSSDFNIVFGGGTKLTVLGGGGSGGGGSGGGGSEVQLVESGGGLVQPGGSLRLSCAASGFTFSSYAMSWVRQAPGKGLEWVSTINSGTGSPYYADSVKGRFTISRDNSKNTLYLQMNSLRAEDTAVYYCAKNFFDGSWFLSPPAMDYWGQGTLVTVSSHHHHHH	8.6	26	0.0086	330000				
LD97A (scFv, AS170036 VL1VH1 scFv mutein) scFv: QSALTQPRSVSGSPGQSVTISCAGTSSDVGSENYVSWYQQHPGKAPKLMIYQVNKRASGVPDRFSGSKSGNTASLTISGLQAEDEADYYCASYRSSAHNIVFGGGTKLTVLGGGGSGGGGSGGGGSEVQLVESGGGLVQPGGSLRLSCAASGFTFSSYAMSWVRQAPGKGLEWVSTINSGTGSPYYADSVKGRFTISRDNSKNTLYLQMNSLRAEDTAVYYCAKNFFDGSWFLGPPAMDYWGQGTLVTVSSHHHHHH					470	0.5	0.5	470
AS170036 VL1VH1-98I108D (scFv, also called 35-AS170036 VL1VH1-98I108D) scFv: QSALTQPRSVSGSPGQSVTISCAGTSSDVGSENYVSWYQQHPGKAPKLMIYQVNKRASGVPDRFSGSKSGNTASLTISGLQAEDEADYYCASYRSSDINIVFGGGTKLTVLGGGGSGGGGSGGGGSEVQLVESGGGLVQPGGSLRLSCAASGFTFSSYAMSWVRQAPGKGLEWVSTINSGTGSPYYADSVKGRFTISRDNSKNTLYLQMNSLRAEDTAVYYCAKNFFDGSWFLDPPAMDYWGQGTLVTVSSHHHHHH	15.8	14	0.0053	370000				
AS170036 VL1VH1-98I108S (scFv, also called 36-AS170036 VL1VH1-98I108S) scFv: QSALTQPRSVSGSPGQSVTISCAGTSSDVGSENYVSWYQQHPGKAPKLMIYQVNKRASGVPDRFSGSKSGNTASLTISGLQAEDEADYYCASYRSSDINIVFGGGTKLTVLGGGGSGGGGSGGGGSEVQLVESGGGLVQPGGSLRLSCAASGFTFSSYAMSWVRQAPGKGLEWVSTINSGTGSPYYADSVKGRFTISRDNSKNTLYLQMNSLRAEDTAVYYCAKNFFDGSWFLSPPAMDYWGQGTLVTVSSHHHHHH	7.7	29	0.007	240000				
LD97G (scFv, AS170036 VL1VH1 scFv mutein) scFv: QSALTQPRSVSGSPGQSVTISCAGTSSDVGSENYVSWYQQHPGKAPKLMIYQVNKRASGVPDRFSGSKSGNTASLTISGLQAEDEADYYCASYRSSGHNIVFGGGTKLTVLGGGGSGGGGSGGGGSEVQLVESGGGLVQPGGSLRLSCAASGFTFSSYAMSWVRQAPGKGLEWVSTINSGTGSPYYADSVKGRFTISRDNSKNTLYLQMNSLRAEDTAVYYCAKNFFDGSWFLGPPAMDYWGQGTLVTVSSHHHHHH					310	0.8	0.8	310
LD97K (scFv, AS170036 VL1VH1 scFv mutein) scFv: QSALTQPRSVSGSPGQSVTISCAGTSSDVGSENYVSWYQQHPGKAPKLMIYQVNKRASGVPDRFSGSKSGNTASLTISGLQAEDEADYYCASYRSSKHNIVFGGGTKLTVLGGGGSGGGGSGGGGSEVQLVESGGGLVQPGGSLRLSCAASGFTFSSYAMSWVRQAPGKGLEWVSTINSGTGSPYYADSVKGRFTISRDNSKNTLYLQMNSLRAEDTAVYYCAKNFFDGSWFLGPPAMDYWGQGTLVTVSSHHHHHH					410	0.6	0.6	410
AS170036 VL1VH1-98Q108A (scFv, also called 37-AS170036 VL1VH1-98Q108A) scFv: QSALTQPRSVSGSPGQSVTISCAGTSSDVGSENYVSWYQQHPGKAPKLMIYQVNKRASGVPDRFSGSKSGNTASLTISGLQAEDEADYYCASYRSSDQNIVFGGGTKLTVLGGGGSGGGGSGGGGSEVQLVESGGGLVQPGGSLRLSCAASGFTFSSYAMSWVRQAPGKGLEWVSTINSGTGSPYYADSVKGRFTISRDNSKNTLYLQMNSLRAEDTAVYYCAKNFFDGSWFLAPPAMDYWGQGTLVTVSSHHHHHH	20.5	11	0.0028	250000				
AS170036 VL1VH1-98Q108D (scFv, also called 38-AS170036 VL1VH1-98Q108D) scFv: QSALTQPRSVSGSPGQSVTISCAGTSSDVGSENYVSWYQQHPGKAPKLMIYQVNKRASGVPDRFSGSKSGNTASLTISGLQAEDEADYYCASYRSSDQNIVFGGGTKLTVLGGGGSGGGGSGGGGSEVQLVESGGGLVQPGGSLRLSCAASGFTFSSYAMSWVRQAPGKGLEWVSTINSGTGSPYYADSVKGRFTISRDNSKNTLYLQMNSLRAEDTAVYYCAKNFFDGSWFLDPPAMDYWGQGTLVTVSSHHHHHH	16.3	14	0.0045	330000				
AS170036 VL1VH1-98Q108S (scFv, also called 39-AS170036 VL1VH1-98Q108S) scFv: QSALTQPRSVSGSPGQSVTISCAGTSSDVGSENYVSWYQQHPGKAPKLMIYQVNKRASGVPDRFSGSKSGNTASLTISGLQAEDEADYYCASYRSSDQNIVFGGGTKLTVLGGGGSGGGGSGGGGSEVQLVESGGGLVQPGGSLRLSCAASGFTFSSYAMSWVRQAPGKGLEWVSTINSGTGSPYYADSVKGRFTISRDNSKNTLYLQMNSLRAEDTAVYYCAKNFFDGSWFLSPPAMDYWGQGTLVTVSSHHHHHH	8.5	27	0.0057	220000				
LD97H (scFv, AS170036 VL1VH1 scFv mutein) scFv: QSALTQPRSVSGSPGQSVTISCAGTSSDVGSENYVSWYQQHPGKAPKLMIYQVNKRASGVPDRFSGSKSGNTASLTISGLQAEDEADYYCASYRSSHHNIVFGGGTKLTVLGGGGSGGGGSGGGGSEVQLVESGGGLVQPGGSLRLSCAASGFTFSSYAMSWVRQAPGKGLEWVSTINSGTGSPYYADSVKGRFTISRDNSKNTLYLQMNSLRAEDTAVYYCAKNFFDGSWFLGPPAMDYWGQGTLVTVSSHHHHHH					420	0.6	0.6	420
AS170036 VL1VH1-98I108A (scFv, also called 34-AS170036 VL1VH1-98I108A; 34-AS170036 VL1VH1-98I08A) scFv: QSALTQPRSVSGSPGQSVTISCAGTSSDVGSENYVSWYQQHPGKAPKLMIYQVNKRASGVPDRFSGSKSGNTASLTISGLQAEDEADYYCASYRSSDINIVFGGGTKLTVLGGGGSGGGGSGGGGSEVQLVESGGGLVQPGGSLRLSCAASGFTFSSYAMSWVRQAPGKGLEWVSTINSGTGSPYYADSVKGRFTISRDNSKNTLYLQMNSLRAEDTAVYYCAKNFFDGSWFLAPPAMDYWGQGTLVTVSSHHHHHH	20.1	11	0.0031	280000				
LD97F (scFv, AS170036 VL1VH1 scFv mutein) scFv: QSALTQPRSVSGSPGQSVTISCAGTSSDVGSENYVSWYQQHPGKAPKLMIYQVNKRASGVPDRFSGSKSGNTASLTISGLQAEDEADYYCASYRSSFHNIVFGGGTKLTVLGGGGSGGGGSGGGGSEVQLVESGGGLVQPGGSLRLSCAASGFTFSSYAMSWVRQAPGKGLEWVSTINSGTGSPYYADSVKGRFTISRDNSKNTLYLQMNSLRAEDTAVYYCAKNFFDGSWFLGPPAMDYWGQGTLVTVSSHHHHHH					450	0.5	0.5	450

Reference: patent US20240279318A1 (NANJING LEGEND BIOTECH, published 2024)
